Measured values: patent US20240254166A1 (University of California, published 2024)

Molecular target: T1, T-Alb-VFP (human, UniProt P02768 25-609)
T1 construct: mature;domain: transmembrane domain; also called tethered Alb
Assay: FRET (donor photobleaching), HEK293T cells

B1: CiHv1-TFP (other)
chain: MEGDNCNKSRHKSHNMINPNYASVRCTQPLPSVIQLRSRNKMIGITEDPSSDSEPVSSNQPLLLTNLSYEVHTFNDNNNHERPAPQEQSTQNTMISMQSEQKSDRFTASNLGMFQYMKFEIGEDGDDHEEEAILTNREKLRHILHSKPIHVAIIVLVVLDSFLVVGELLIDLKVIIVPHGNPAPEILHGFSLSILSIFMVEIALKIIADHRHFIHHKVEVLDAVVVVISFGVDIALIFVGESEALAAIGLLVILRLWRVFRIINGIIVTVKTKADDRVHEIKKKNSELELQIHNLEEKLSQKEQDMSRLHEILRCNNIDIPPTVPLTTSVQIHSTTTASADV
notes: whole, on cells
- binding result: no binding
